The target in this test is T1, KRAS G12D peptide on HLA-A*11:01 (human).
T1 peptide: VVGADGVGK
In words: cytokine release.

This is an account of results in PMC4775432 (2015).

B1: TRAV4-4*01/BV12-2*01 (TCR)
alpha TRAV4-4/DV10*01 49*01 CDR3: CAADSSNTGYQNFYF
beta TRBV12-2*01 1-2*01 CDR3: CASSLTDPLDSDYTF
On to B1, for which the binding result was “no recognition”.
